This is an account of results in the supplement of paper PMC5998384.

The subject of series [1] is HeLa Kyoto. As to the kind of experiment: thermal stability score vs G1/S (z-score of summed log2 fold changes over temperatures); higher = more thermally stable than in G1/S.
The test system of series [2] is HeLa Kyoto. As to the kind of experiment: solubility in G1/S (NP-40 vs SDS abundance) (log2 ratio); higher = more soluble. The settings on record: cell cycle stage: G1/S.
Series [3] relates to HeLa Kyoto. The series is described as follows: melting temperature (median over replicates), in situ; higher = more thermally stable.
For series [4], the system named is HeLa Kyoto. As to the kind of experiment: solubility change mitosis vs G1/S (difference of NP-40 vs SDS log2 ratios) (log2 ratio difference); higher = more soluble in mitosis.
Setting [5] is: cell cycle stage: early G1 (4.5 h after nocodazole release).
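For melting temperature (median over replicates), in situ in this document: HeLa Kyoto cells synchronized by double thymidine or nocodazole block, proteins quantified by TMT10plex mass spectrometry, three independent biological replicates.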
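For solubility change mitosis vs G1/S (difference of NP-40 vs SDS log2 ratios) in this document: synchronized HeLa Kyoto cells (double thymidine block for G1/S, nocodazole release for mitosis), protein amounts in NP-40 versus SDS lysates quantified by mass spectrometry, three biological replicates.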
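For solubility in G1/S (NP-40 vs SDS abundance) in this document: HeLa Kyoto cells arrested at G1/S by double thymidine block, proteins quantified by TMT10plex mass spectrometry in mild NP-40 versus SDS extracts, three biological replicates.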
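For thermal stability score vs G1/S (z-score of summed log2 fold changes over temperatures) in this document: synchronized HeLa Kyoto cells, proteins quantified by TMT10plex mass spectrometry, three biological replicates, mitosis taken 0.5 h after nocodazole release, G1/S directly after double thymidine block.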

Take “MPPKVTSELLRQLRQAMRNSEYVTEPIQAYIIPSGDAHQSEYIAPCDCRRAFVSGFDGSAGTAIITEEHAAMWTDGRYFLQAAKQMDSNWTLMKMGLKDTPTQEDWLVSVLPEGSRVGVDPLIIPTDYWKKMAKVLRSAGHHLIPVKENLVDKIWTDRPERPCKPLLTLGLDYTGISWKDKVADLRLKMAERNVMWFVVTALDEIAWLFNLRGSDVEHNPVFFSYAIIGLETIMLFIDGDRIDAPSVKEHLLLDLGLEAEYRIQVHPYKSILSELKALCADLSPREKVWVSDKASYAVSETIPKDHRCCMPYTPICIAKAVKNSAESEGMRRAHIKDAVALCELFNWLEKEVPKGGVTEISAADKAEEFRRQQADFVDLSFPTISSTGPNGAIIHYAPVPETNRTLSLDEVYLIDSGAQYKDGTTDVTRTMHFGTPTAYEKECFTYVLKGHIAVSAAVFPTGTKGHLLDSFARSALWDSGLDYLHGTGHGVGSFLNVHEGPCGISYKTFSDEPLEAGMIVTDEPGYYEDGAFGIRIENVVLVVPVKTKYNFNNRGSLTFEPLTLVPIQTKMIDVDSLTDKECDWLNNYHLTCRDVIGKELQKQGRQEALEWLIRETQPISKQH [XPNPEP1]”: the thermal stability score was -1 in series [1] (setting [5]) and -3.97 in series [1] (cell cycle stage: mitosis). Also, the “solubility in G1/S (log2)” value in series [2] came out at 0.105. Further, the figures for the melting temperature in series [3] (cell cycle stage: G1/S) and in series [3] (cell cycle stage: mitosis) were 53 °C and 51.9 °C, respectively. For the same sequence, the “solubility change mitosis (log2)” value in series [4] is -0.14.

“MAECGASGSGSSGDSLDKSITLPPDEIFRNLENAKRFAIDIGGSLTKLAYYSTVQHKVAKVRSFDHSGKDTEREHEPPYEISVQEEITARLHFIKFENTYIEACLDFIKDHLVNTETKVIQATGGGAYKFKDLIEEKLRLKVDKEDVMTCLIKGCNFVLKNIPHEAFVYQKDSDPEFRFQTNHPHIFPYLLVNIGSGVSIVKVETEDRFEWVGGSSIGGGTFWGLGALLTKTKKFDELLHLASRGQHSNVDMLVRDVYGGAHQTLGLSGNLIASSFGKSATADQEFSKEDMAKSLLHMISNDIGQLACLHARLHSLDRVYFGGFFIRGHPVTMRTITYSINFFSKGEVQALFLRHEGYLGAIGAFLKGAEQDNPNQYSWGENYAGSSGLMSASPELGPAQRARSGTFDLLEMDRLERPLVDLPLLLDPPSYVPDTVDLTDDALARKYWLTCFEEALDGVVKRAVASQPDSVDAAERAEKFRQKYWNKLQTLRQQPFAYGTLTVRSLLDTREHCLNEFNFPDPYSKVKQRENGVALRCFPGVVRSLDALGWEERQLALVKGLLAGNVFDWGAKAVSAVLESDPYFGFEEAKRKLQERPWLVDSYSEWLQRLKGPPHKCALIFADNSGIDIILGVFPFVRELLLRGTEVILACNSGPALNDVTHSESLIVAERIAGMDPVVHSALQEERLLLVQTGSSSPCLDLSRLDKGLAALVRERGADLVVIEGMGRAVHTNYHAALRCESLKLAVIKNAWLAERLGGRLFSVIFKYEVPAE [PANK4]”: the thermal stability score in series [1] (setting [5]) was 0.0566; in series [1] (cell cycle stage: mitosis), -0.284. Further, the “solubility in G1/S (log2)” value in series [2] is -0.125. Moreover, the melting temperature in series [3] (cell cycle stage: G1/S) was determined as 52 °C; in series [3] (cell cycle stage: mitosis) it was 51.7 °C. In addition, the “solubility change mitosis (log2)” value in series [4] was -0.0425.

Take “MTSELDIFVGNTTLIDEDVYRLWLDGYSVTDAVALRVRSGILEQTGATAAVLQSDTMDHYRTFHMLERLLHAPPKLLHQLIFQIPPSRQALLIERYYAFDEAFVREVLGKKLSKGTKKDLDDISTKTGITLKSCRRQFDNFKRVFKVVEEMRGSLVDNIQQHFLLSDRLARDYAAIVFFANNRFETGKKKLQYLSFGDFAFCAELMIQNWTLGAVGEAPTDPDSQMDDMDMDLDKEFLQDLKELKVLVADKDLLDLHKSLVCTALRGKLGVFSEMEANFKNLSRGLVNVAAKLTHNKDVRDLFVDLVEKFVEPCRSDHWPLSDVRFFLNQYSASVHSLDGFRHQALWDRYMGTLRGCLLRLYHD [FIBP]”: the thermal stability score in series [1] (setting [5]) is -0.876; in series [1] (cell cycle stage: mitosis) it was 0.233. Also, in series [2], the “solubility in G1/S (log2)” value is -0.45. In addition, the melting temperature in series [3] (cell cycle stage: G1/S) amounted to 50.3 °C; in series [3] (cell cycle stage: mitosis) it was 49.5 °C. Moreover, the “solubility change mitosis (log2)” value in series [4] is -0.13.

As to “MMEEEELEFVEELEAVLQLTPEVQLAIEQVFPSQDPLDRADFNAVEYINTLFPTEQSLANIDEVVNKIRLKIRRLDDNIRTVVRGQTNVGQDGRQALEEAQKAIQQLFGKIKDIKDKAEKSEQMVKEITRDIKQLDHAKRHLTTSITTLNHLHMLAGGVDSLEAMTRRRQYGEVANLLQGVMNVLEHFHKYMGIPQIRQLSERVKAAQTELGQQILADFEEAFPSQGTKRPGGPSNVLRDACLVANILDPRIKQEIIKKFIKQHLSEYLVLFQENQDVAWLDKIDRRYAWIKRQLVDYEEKYGRMFPREWCMAERIAVEFCHVTRAELAKIMRTRAKEIEVKLLLFAIQRTTNFEGFLAKRFSGCTLTDGTLKKLESPPPSTNPFLEDEPTPEMEELATEKGDLDQPKKPKAPDNPFHGIVSKCFEPHLYVYIESQDKNLGELIDRFVADFKAQGPPKPNTDEGGAVLPSCADLFVYYKKCMVQCSQLSTGEPMIALTTIFQKYLREYAWKILSGNLPKTTTSSGGLTISSLLKEKEGSEVAKFTLEELCLICNILSTAEYCLATTQQLEEKLKEKVDVSLIERINLTGEMDTFSTVISSSIQLLVQDLDAACDPALTAMSKMQWQNVEHVGDQSPYVTSVILHIKQNVPIIRDNLASTRKYFTQFCVKFANSFIPKFITHLFKCKPISMVGAEQLLLDTHSLKMVLLDLPSISSQVVRKAPASYTKIVVKGMTRAEMILKVVMAPHEPLVVFVDNYIKLLTDCNTETFQKILDMKGLKRSEQSSMLELLRQRLPAPPSGAESSGSLSLTAPTPEQESSRIRKLEKLIKKRL [VPS53]”, the thermal stability score in series [1] (setting [5]) came out at 0.237; in series [1] (cell cycle stage: mitosis), 1.04. For the same sequence, in series [2], the “solubility in G1/S (log2)” value was 0.196. For the same sequence, the melting temperature worked out at 50 °C in series [3] (cell cycle stage: G1/S) and 49.7 °C in series [3] (cell cycle stage: mitosis). The “solubility change mitosis (log2)” value in series [4] was -0.136.
